Measurements: article PMC4021431, “Identification of glutathione (GSH)-independent glyoxalase III from Schizosaccharomyces pombe” (BMC Evolutionary Biology, 2014)
Where a chain is given by its changes, count along the chain named. In names and notes the source's numbering stands.

Experiments:
Assay in all cases: DNPH colorimetric glyoxalase III assay, A540
[1] = substrate: CC(=O)C=O; type: biochemical, Schizosaccharomyces pombe; details: GSH-independent, 100 mM Na3PO4 pH 6.8, 45 °C, MG 0.5-3 mM (below Km)
Excerpt: DNPH colorimetric glyoxalase III assay, A540 on SpDJ-1

[2] = substrate: CC(=O)C=O; type: biochemical, Schizosaccharomyces pombe; details: GSH-independent, 100 mM Na3PO4 pH 6.8, 45 °C
Excerpt: DNPH colorimetric glyoxalase III assay, A540 on Hsp3101

[3] = substrate: CC(=O)C=O; type: biochemical, Schizosaccharomyces pombe; details: GSH-independent, 100 mM Na3PO4 pH 6.8, 45 °C; remark: listed apart in the source
Excerpt: DNPH colorimetric glyoxalase III assay, A540 on Hsp3102

[4] = substrate: CC(=O)C=O; type: biochemical, Saccharomyces cerevisiae; details: GSH-independent, 100 mM Na3PO4 pH 6.8, 45 °C
Excerpt: DNPH colorimetric glyoxalase III assay, A540 on ScHsp31

B1: SpDJ-1 (Schizosaccharomyces pombe 972h-) (protein)
chain: MVKVCLFVADGTDEIEFSAPWGIFKRAEIPIDSVYVGENKDRLVKMSRDVEMYANRSYKEIPSADDFAKQYDIAIIPGGGLGAKTLSTTPFVQQVVKEFYKKPNKWIGMICAGTLTAKTSGLPNKQITGHPSVRGQLEEGGYKYLDQPVVLEENLITSQGPGTAMLFGLKLLEQVASKDKYNAVYKSLSMP
notes: full length (191 aa), C-terminal His6 (pET28a, NcoI/XhoI), E. coli BL21(DE3), Ni-NTA
Q: Which Km [1] does the source give for B1 here?
A: Its Km is 10800 µM.

Q: What about the kcat [1] of the same protein?
A: Its kcat is 1.43 s⁻¹.

Q: What about the kcat/Km [1] of the same protein?
A: Its kcat/Km is 132 M⁻¹ s⁻¹.

B2: SpDJ-1 (Schizosaccharomyces pombe 972h-; H130A) (protein)
chain: B1 chain with H130A
notes: as for B1
Q: Which results are given for B2?
A: Km [1]: 37300 µM; kcat [1]: 1.09 s⁻¹; kcat/Km [1]: 30 M⁻¹ s⁻¹

B3: Hsp3101 (Schizosaccharomyces pombe 972h-) (protein)
chain: MASEGKVLLVASSYYGPFYPDGMNTGVHFAELLIPYQVFREAGYEVQLTSETGKCKFDDHSIKKSALGEVERDAFDNKDNEFWYALKDIKPADKINYKEFCIMFIAGGHAAMFDLPHATNLQTLAQQIYASNGVLAAVCHGPVMLPFVDDTKSPEGRSVVYGKKVTAFNSTGELVMGVSSALRERNMQDLNSLFREAGAEFVDPPTPMSDFTQVDGRIVTGVNPMSAKSTAEAAIKVSQSLRKT
notes: full length (244 aa), C-terminal His6 (pET28a), E. coli BL21(DE3), Ni-NTA
Q: What does the source list for B3?
A: Km [2]: 1400 µM; kcat [2]: 0.518 s⁻¹; kcat/Km [2]: 383 M⁻¹ s⁻¹

B4: Hsp3102 (Schizosaccharomyces pombe 972h-) (protein)
chain: MSIAKGKNALLVASSYYGPFYPDGKNTGVHFSELLIPYNVFKKAGFNVQFVSENGSYKFDDHSIEESKLGDFERKVFNDKNDDFWTNLNNMKKASDIVGKDYQLLFVAGGHAAMFDLPKATNLQAVAREVFTNGGVLSAVCHGPVLLANVKNPQSVEGKTVVYHKHVTAFNKAGEEKMGVMDELKKRGMKSLNEIFAEAGATFIDPPNPNVNFTQIDGKIVTGVNPQSAKSTAEAAVSAL
notes: full length (240 aa), C-terminal His tag (pESP3), expressed in S. pombe yAS56, Ni-NTA
Q: How did the Km [3] turn out when B4 was run?
A: Its Km is 2700 µM.

Q: What about the kcat [3] of the same protein?
A: The kcat was 0.967 s⁻¹.

Q: What about the kcat/Km [3] of the same protein?
A: The kcat/Km was 350 M⁻¹ s⁻¹.

B5: ScHsp31 (Saccharomyces cerevisiae S288C) (protein)
chain: MAPKKVLLALTSYNDVFYSDGAKTGVFVVEALHPFNTFRKEGFEVDFVSETGKFGWDEHSLAKDFLNGQDETDFKNKDSDFNKTLAKIKTPKEVNADDYQIFFASAGHGTLFDYPKAKDLQDIASEIYANGGVVAAVCHGPAIFDGLTDKKTGRPLIEGKSITGFTDVGETILGVDSILKAKNLATVEDVAKKYGAKYLAPVGPWDDYSITDGRLVTGVNPASAHSTAVRSIDALKN
notes: full length (237 aa), C-terminal His6 (pET28a), E. coli BL21(DE3), Ni-NTA
Q: What does the source list for B5?
A: Km [4]: 1500 µM; kcat [4]: 1.25 s⁻¹; kcat/Km [4]: 850 M⁻¹ s⁻¹
